Key:
L-1210 tumor cells = conditions: inhibiting cell growth and differentiation, read-out: IC50, cytotoxic effects against L-1210 tumor cells; cited from earlier work
[1] = tested on: STAT5 phosphorylation in T-47D human breast cancer cells; assay: STAT 5 phosphorylation/immunoprecipitation assay; type: cell-based; conditions: T-47D cells, 30 min incubation, anti-phosphotyrosine blot
Method: T-47D cells are grown in RPMI-1640 medium containing 10% Charcoal Stripped Fetal Bovine Serum (CSFBS; growth medium). For each experiment, cells are passed into 6 well culture plates in growth medium till reach 90% confluence. On the day of the experiment, cells are depleted in serum free media for one hour and incubated in hPRL, hPRL-G129R or combination of two for 30 min. After treatment, T47-D cells are washed once with ice cold PBS and collected by gentle scraping in 1 ml ice cold lysis buffer [20 mM Tris-Cl (pH 7.4), 100 mM NaCl, 2 mM EDTA, 1% NP-40, 1 mM phenylmethylsulfonyl fluoride, 10 ug/ml aprotinin, 10 ug/ml leupeptin]. The lysis mixture is then passed through a 22 gauge needle several times avoiding air bubbles and spin at maximum speed for 20 minutes. The supernatant is then transferred to a new microcentrifuge tube. Five μg of STAT5 monoclonal antibody is then added to 100 microliters (200–500 micrograms total protein) of cell lysate along with 400 microliters of ddH20 and 500 microliters of 2×IP buffer [1% Triton X-100, 150 mM NaCl, 10 mM Tris pH 7.4, 1 mM EDTA, 1 mM EGTA, 0.2 mM sodium vanadate, 0.2 mM PMSF, 0.5% NP-40] to each reaction. After overnight incubation at 4° C. and gentle rotation, 50 microliters of prewashed (1×IP buffer) protein A agarose beads are added to each IP reaction and continue the Incubation for another 2 hours at 4C. […]

[2] = tested on: T-47D human breast cancer cells; assay: T-47D co-culture method with L cells (FIG. 3); type: cell-based; conditions: co-cultured with L-PRL or L-hPRL-G129R cells, dose-response
Source text: The x-axis represents the co-cultured L cell (control, L-PRL or L-hPRL-G129R cell numbers. Each data point represents a mean of at least three independent experiments with triplicate wells.

[3] = tested on: T-47D human breast cancer cells; assay: T-47D human breast cancer cell proliferation assay (FIG. 4); type: cell-based
Source text: The x-axis represents the hPRL-G129R concentration either in the absence (open bars) or presence of 4-OH-Tamoxifen. Each data point represents a mean of at least three independent experiments with triplicate wells.

Molecule | IC50 (L-1210 tumor cells) [nM] | block of signal transduction (STAT5 phosphorylation) induced by hPRL [1] | effect on T-47D cells, co-culture method [2] | effect on T-47D cell proliferation ([3]; hPRL-G129R alone, dose-response) | effect on T-47D cell proliferation in combination ([3]; in presence of 4-OH-Tamoxifen)
COc1ccc2c(c[n+](C)c3c4cc5c(cc4ccc23)OCO5)c1OC [chelerythrine, 1,2-dimethoxy-12-methyl[1,3]benzodioxolo[5,6-c]phenanthridinium] | 53 |  |  |  | 
hPRL-G129R: human prolactin with substitution of Gly to Arg at position 129 (SEQ ID NO: 34), hPRLR antagonist (protein) LPICPGGAARCQVTLRDLFDRAVVLSHYIHNLSSEMFSEFDKRYTHGRGFITKAINSCHTSSLATPEDKEQAQQMNQKDFLSLIVSILRSWNEPLYHLVTEVRGMQEAPEAILSKAVEIEEQTKRLLEGMELIVSQVHPETKENEIYPVWSGLPSLQMADEESRLSAYYNLLHCLRRDSHKIDNYLKLLKCRIIHNNNC |  | able to block the signal transduction induced by hPRL | dose-response inhibitory effects | dose-response inhibitory effects | additive effects with 4-OH-Tamoxifen
hPRL: human prolactin (protein) LPICPGGAARCQVTLRDLFDRAVVLSHYIHNLSSEMFSEFDKRYTHGRGFITKAINSCHTSSLATPEDKEQAQQMNQKDFLSLIVSILRSWNEPLYHLVTEVRGMQEAPEAILSKAVEIEEQTKRLLEGMELIVSQVHPETKENEIYPVWSGLPSLQMADEESRLSAYYNLLHCLRRDSHKIDNYLKLLKCRIIHNNNC |  |  | stimulatory effects |  | 

Reference: US7201905B2, “Bi-functional cancer treatment agents” (Greenville Hospital System, priority 2001, dated 2007)
